Laboratory results reported in article PMC3137068.
Read-outs that look alike come from different tables or passages of the source.

Assays:
[1] = molecular target: oxidized nDsbD (N-terminal periplasmic globular domain of DsbD, wild type) (E. coli) (UniProt P36655); assay: SPR
Cys461 = Cys461 (UniProt position 480, LYADWCVACKE); assay: NMR; conditions: reduced cDsbD (Cys461 and Cys464 as free thiols), isolated from nDsbD; cited from earlier work
Asp455 = Asp455 (UniProt position 474, KPVMLDLYADW); conditions: isolated domain, cited from earlier work
[2] = molecular target: oxidized D455N/E468Q-cDsbD (E. coli); assay: NMR titration
[3] = molecular target: oxidized V462A-cDsbD (E. coli); assay: NMR titration
[4] = molecular target: oxidized cDsbD (C-terminal periplasmic globular domain of DsbD, wild type) (E. coli); assay: NMR titration
Chain of oxidized cDsbD (C-terminal periplasmic globular domain of DsbD, wild type) (E. coli) (P36655 20-565): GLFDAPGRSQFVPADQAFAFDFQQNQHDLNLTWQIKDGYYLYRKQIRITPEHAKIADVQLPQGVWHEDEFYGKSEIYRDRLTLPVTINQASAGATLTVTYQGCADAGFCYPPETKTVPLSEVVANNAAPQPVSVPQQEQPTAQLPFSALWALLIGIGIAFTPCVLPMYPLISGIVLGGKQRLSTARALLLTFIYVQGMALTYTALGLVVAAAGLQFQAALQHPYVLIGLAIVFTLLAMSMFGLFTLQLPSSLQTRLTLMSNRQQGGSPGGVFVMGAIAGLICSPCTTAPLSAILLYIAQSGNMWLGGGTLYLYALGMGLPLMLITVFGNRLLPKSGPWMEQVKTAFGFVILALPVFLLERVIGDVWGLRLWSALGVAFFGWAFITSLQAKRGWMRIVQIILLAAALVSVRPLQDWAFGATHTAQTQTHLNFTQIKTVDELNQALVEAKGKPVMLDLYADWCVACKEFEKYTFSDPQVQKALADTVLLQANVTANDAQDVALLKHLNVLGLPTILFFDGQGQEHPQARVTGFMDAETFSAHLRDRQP

For C461A-cDsbD (domain or fragment), the Kd [1] was 86 µM.

In the case of “Thiol:disulfide interchange protein DsbD, C-terminal periplasmic thioredoxin-like domain (cDsbD) (Escherichia coli)”, the pKa (Cys461) is given as 10.5, the pKa (Asp455; oxidized cDsbD (Cys461-Cys464 disulfide)) is given as 6.6 and the pKa (Asp455; reduced cDsbD (Cys461 and Cys464 as free thiols)) is given as 5.9.

B1: oxidized nDsbD (N-terminal periplasmic globular domain of DsbD, wild type) (domain or fragment)
chain: LFDAPGRSQFVPADQAFAFDFQQNQHDLNLTWQIKDGYYLYRKQIRITPEHAKIADVQLPQGVWHEDEFYGKSEIYRDRLTLPVTINQASAGATLTVTYQGCADAGFCYPPETKTVPLSEVVANNAAPQPV
modifications: Cys103-Cys109 disulfide bond (oxidized state)
In the case of B1, the Kd [2] is reported as 2000 µM and the fold weaker than with wild-type cDsbDox [3] is reported as 5 to 10 fold.

B2: C109A-nDsbD (domain or fragment)
chain: LFDAPGRSQFVPADQAFAFDFQQNQHDLNLTWQIKDGYYLYRKQIRITPEHAKIADVQLPQGVWHEDEFYGKSEIYRDRLTLPVTINQASAGATLTVTYQGCADAGFAYPPETKTVPLSEVVANNAAPQPV
With B2 the Kd [4] was 2400 to 3500 µM.
